Experimental findings from article PMC6514445, “Enterococcal PcfF Is a Ribbon-Helix-Helix Protein That Recruits the Relaxase PcfG Through Binding and Bending of the oriT Sequence” (Frontiers in Microbiology, 2019) are described below.

Data set [1] addresses PcfF1-54 (RHH domain, GST tag cleaved off) (Enterococcus faecalis (plasmid pCF10)) (UniProt Q5G3N6). Nature of the data set: SEC; Superdex 75 10/300 GL with molecular mass standards; PcfF1-54 after GST cleavage, absorbance at 254 nm.
A further data set addresses PcfF R13L/I14A (Enterococcus faecalis plasmid pCF10, UniProt Q5G3N6 1-118, R13L;I14A). The experiment in a line: EMSA; 100 nM protein; Results also say marked decrease; EMSA: 30 nM DNA, 10 mM Tris/HCl pH 7.5, 200 mM NaCl (150 mM NaCl with PcfG), 15 min at room temperature; 20% native PAGE in TAE pH 8.0 at 4 C. The note with it: protein: recombinant; chain copies: 2; label: 5' FITC on sense strand.

The target of another data set is PcfF R13L (Enterococcus faecalis plasmid pCF10, UniProt Q5G3N6 1-118, R13L). Described as above. The note with it: protein: recombinant; chain copies: 2; label: 5' FITC on sense strand.
The target of another data set is PcfF I70S/R77S (Enterococcus faecalis plasmid pCF10, UniProt Q5G3N6 1-118, I70S;R77S). The experiment in a line: EMSA; 100 nM protein; as wild type; EMSA: 30 nM DNA, 10 mM Tris/HCl pH 7.5, 200 mM NaCl (150 mM NaCl with PcfG), 15 min at room temperature; 20% native PAGE in TAE pH 8.0 at 4 C. The note with it: protein: recombinant; chain copies: 2; label: 5' FITC on sense strand.

A further data set concerns the target PcfF N73A/Q74A (Enterococcus faecalis plasmid pCF10, UniProt Q5G3N6 1-118, N73A;Q74A). The data set is described as above. As to conditions: protein: recombinant; chain copies: 2; label: 5' FITC on sense strand.
The target of another data set is PcfF R77S (Enterococcus faecalis plasmid pCF10, UniProt Q5G3N6 1-118, R77S). The description is as above. The note with it: protein: recombinant; chain copies: 2; label: 5' FITC on sense strand.
Another data set addresses PcfF I70S (Enterococcus faecalis plasmid pCF10, UniProt Q5G3N6 1-118, I70S). The description is as above. The note with it: protein: recombinant; chain copies: 2; label: 5' FITC on sense strand.
Data set [2] concerns the target T1, PcfF (Enterococcus faecalis plasmid pCF10, UniProt Q5G3N6 1-118).
T1 sequence: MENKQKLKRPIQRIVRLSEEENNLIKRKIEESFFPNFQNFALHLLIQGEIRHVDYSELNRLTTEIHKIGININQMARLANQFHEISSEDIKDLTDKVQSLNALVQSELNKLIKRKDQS
Nature of the data set: EMSA; EMSA: 30 nM DNA, 10 mM Tris/HCl pH 7.5, 200 mM NaCl (150 mM NaCl with PcfG), 15 min at room temperature; 20% native PAGE in TAE pH 8.0 at 4 C. The note with it: protein: recombinant; tags: N-terminal GST, 3C-cleaved (4 extra residues left); chain copies: 2; label: 5' FITC on sense strand.

For data set [3], the target named is T1, PcfF. The experiment in a line: EMSA (DNA bending); more pronounced shift than end positions; bending; EMSA: 30 nM DNA, 10 mM Tris/HCl pH 7.5, 200 mM NaCl (150 mM NaCl with PcfG), 15 min at room temperature; 20% native PAGE in TAE pH 8.0 at 4 C. The note with it: protein: recombinant; tags: N-terminal GST, 3C-cleaved (4 extra residues left); chain copies: 2.

Data set [4] addresses T1, PcfF. The experiment in a line: EMSA (DNA bending); EMSA: 30 nM DNA, 10 mM Tris/HCl pH 7.5, 200 mM NaCl (150 mM NaCl with PcfG), 15 min at room temperature; 20% native PAGE in TAE pH 8.0 at 4 C. The note with it: protein: recombinant; tags: N-terminal GST, 3C-cleaved (4 extra residues left); chain copies: 2.
Data set [5] deals with the molecule itself. Nature of the data set: GEMMA (gas-phase electrophoretic mobility macromolecule analysis); SEC peak of wild type PcfF dialysed against 100 mM ammonium acetate pH 7.8, diluted to 0.025 mg/mL with 0.005% Tween-20.
Data set [6] concerns the molecule itself. The experiment in a line: SEC; Superdex 200 10/300 GL Increase; 20 mM Tris/HCl pH 7.5, 200 mM NaCl; PcfF and its variants, self-association.
Data set [7] deals with the molecule itself. Nature of the data set: crystal structure; SeMet-PcfF, sitting drop at 20°C, 0.2 M lithium sulfate, 0.1 M Bis-Tris pH 6.5, 25% PEG 3350; space group P2_(1), 4 molecules in the asymmetric unit; 1.9 Å.

Regarding “PcfF1-54 (RHH domain, GST tag cleaved off) (from UniProt Q5G3N6 1-54) (domain or fragment)”, the stoichiometry N in data set [1] stood at 2.

B1: oriT 40 bp (dsDNA)
DNA 1: TCGCAACATGCTAGCATGTTGCTCCGCTTGCAAAAAGAAA
DNA 2: TTTCTTTTTGCAAGCGGAGCAACATGCTAGCATGTTGCGA
For B1, the binding result is listed as “no binding” with PcfF R13L/I14A; “no binding” with PcfF R13L; “binds” with PcfF I70S/R77S; “binds” in the data set with PcfF N73A/Q74A; “binds” in the data set with PcfF R77S; “binds” with PcfF I70S. Besides, the equilibrium dissociation constant (Kd) with PcfF [2] is roughly 100 nM.

B2: oriT middle 120 bp (dsDNA)
DNA 1: GCGAAATATTGGTACCCCATGGAATCGAGGGATCCTCTAGTCGCAACATGCTAGCATGTTGCTCCGCTTGCAAAAAGAAAAGTCGACACGCGTAGATCTGCTAGCATCGATCCATGGACT
DNA 2: AGTCCATGGATCGATGCTAGCAGATCTACGCGTGTCGACTTTTCTTTTTGCAAGCGGAGCAACATGCTAGCATGTTGCGACTAGAGGATCCCTCGATTCCATGGGGTACCAATATTTCGC
On to B2, for which the binding result with PcfF [3] is on record as “binds”.

B3: oriT 3' 120 bp (dsDNA)
DNA 1: GTCTCGAGTTTAAAGATATCCAGCTGCCCGGGAGGCCTTCGCGAAATATTGGTACCCCATGGAATCGAGGGATCCTCTAGTCGCAACATGCTAGCATGTTGCTCCGCTTGCAAAAAGAAA
DNA 2: TTTCTTTTTGCAAGCGGAGCAACATGCTAGCATGTTGCGACTAGAGGATCCCTCGATTCCATGGGGTACCAATATTTCGCGAAGGCCTCCCGGGCAGCTGGATATCTTTAAACTCGAGAC
Consider B3, for which, in the data set with PcfF [4], the binding result is “binds”.

B4: PcfF (wild type, full length, GST tag cleaved off) (natural protein)
chain: MENKQKLKRPIQRIVRLSEEENNLIKRKIEESFFPNFQNFALHLLIQGEIRHVDYSELNRLTTEIHKIGININQMARLANQFHEISSEDIKDLTDKVQSLNALVQSELNKLIKRKDQS
notes: PcfF accessory factor encoded by plasmid pCF10 of Enterococcus faecalis; GenBank AAW51324; 118 residues, 14 kDa; Cloned in pGEX-6P-2 (BamHI/XhoI); the same is likely here; also called wt PcfF; accessory factor PcfF; source: E. coli BL21(DE3), purified (glutathione-agarose, SEC, 3C protease cleavage, second SEC, reverse purification); not shown: GST, N-terminal, cleaved
Take B4: the “stoichiometry N” value in data set [5] is roughly 2.

B5: PcfF I70S (as run on SEC) (natural protein)
chain: MENKQKLKRPIQRIVRLSEEENNLIKRKIEESFFPNFQNFALHLLIQGEIRHVDYSELNRLTTEIHKIGSNINQMARLANQFHEISSEDIKDLTDKVQSLNALVQSELNKLIKRKDQS
notes: PcfF of plasmid pCF10, Enterococcus faecalis; GenBank AAW51324; 118 residues; source: E. coli BL21(DE3), purified (glutathione-agarose, SEC)
With B5, the binding result in data set [6] is recorded as “binds”.

B6: PcfF R13L/I14A/R16L (natural protein)
chain: MENKQKLKRPIQLAVLLSEEENNLIKRKIEESFFPNFQNFALHLLIQGEIRHVDYSELNRLTTEIHKIGININQMARLANQFHEISSEDIKDLTDKVQSLNALVQSELNKLIKRKDQS
notes: as for B5
B6: the binding result in data set [6] is on record as “binds”.

B7: PcfF I70S/R77S (as run on SEC) (natural protein)
chain: MENKQKLKRPIQRIVRLSEEENNLIKRKIEESFFPNFQNFALHLLIQGEIRHVDYSELNRLTTEIHKIGSNINQMASLANQFHEISSEDIKDLTDKVQSLNALVQSELNKLIKRKDQS
notes: as for B5
Regarding B7, in data set [6], the binding result is given as “binds”.

B8: PcfF R77S (as run on SEC) (natural protein)
chain: MENKQKLKRPIQRIVRLSEEENNLIKRKIEESFFPNFQNFALHLLIQGEIRHVDYSELNRLTTEIHKIGININQMASLANQFHEISSEDIKDLTDKVQSLNALVQSELNKLIKRKDQS
notes: as for B5
B8: the binding result in data set [6] was “binds”.

B9: Selenomethionine-derivatized PcfF (full length) (natural protein)
chain: MENKQKLKRPIQRIVRLSEEENNLIKRKIEESFFPNFQNFALHLLIQGEIRHVDYSELNRLTTEIHKIGININQMARLANQFHEISSEDIKDLTDKVQSLNALVQSELNKLIKRKDQS
modifications: selenomethionine in place of methionine
notes: PcfF accessory factor encoded by plasmid pCF10 of Enterococcus faecalis; GenBank AAW51324; 118 residues; Probably with the GST cleaved off, as for the wild type; 4 molecules in the asymmetric unit (dimer of dimers); also called SeMet-PcfF; source: E. coli BL21(DE3) in M9 minimal medium with L-selenomethionine, purified as wild type PcfF with 0.5 mM TCEP
Take B9: the binding result in data set [7] was “binds”.

B10: PcfF N73A/Q74A (as run on SEC) (natural protein)
chain: MENKQKLKRPIQRIVRLSEEENNLIKRKIEESFFPNFQNFALHLLIQGEIRHVDYSELNRLTTEIHKIGINIAAMARLANQFHEISSEDIKDLTDKVQSLNALVQSELNKLIKRKDQS
notes: as for B5
In the case of B10, the binding result in [6] was “binds”.

B11: PcfF Q105W (natural protein)
chain: MENKQKLKRPIQRIVRLSEEENNLIKRKIEESFFPNFQNFALHLLIQGEIRHVDYSELNRLTTEIHKIGININQMARLANQFHEISSEDIKDLTDKVQSLNALVWSELNKLIKRKDQS
notes: PcfF of plasmid pCF10, Enterococcus faecalis; GenBank AAW51324; 118 residues; also called PcfF_(Q105A/W) variants; source: E. coli BL21(DE3), purified (glutathione-agarose, SEC)
Consider B11, for which, in data set [6], the binding result is “binds”.

B12: PcfF R13L/R16L (natural protein)
chain: MENKQKLKRPIQLIVLLSEEENNLIKRKIEESFFPNFQNFALHLLIQGEIRHVDYSELNRLTTEIHKIGININQMARLANQFHEISSEDIKDLTDKVQSLNALVQSELNKLIKRKDQS
notes: as for B5
On to B12, for which the binding result in data set [6] is reported as “binds”.

B13: PcfF Q105A (natural protein)
chain: MENKQKLKRPIQRIVRLSEEENNLIKRKIEESFFPNFQNFALHLLIQGEIRHVDYSELNRLTTEIHKIGININQMARLANQFHEISSEDIKDLTDKVQSLNALVASELNKLIKRKDQS
notes: as for B11
For the molecule B13, the binding result in data set [6] is recorded as “binds”.

B14: PcfF R13L (natural protein)
chain: MENKQKLKRPIQLIVRLSEEENNLIKRKIEESFFPNFQNFALHLLIQGEIRHVDYSELNRLTTEIHKIGININQMARLANQFHEISSEDIKDLTDKVQSLNALVQSELNKLIKRKDQS
notes: as for B5
Turning to B14, the binding result in data set [6] is given as “binds”.

B15: PcfF R13L/I14A (natural protein)
chain: MENKQKLKRPIQLAVRLSEEENNLIKRKIEESFFPNFQNFALHLLIQGEIRHVDYSELNRLTTEIHKIGININQMARLANQFHEISSEDIKDLTDKVQSLNALVQSELNKLIKRKDQS
notes: as for B5
With B15, in data set [6], the binding result is recorded as “binds”.

B16: PcfF I14A (natural protein)
chain: MENKQKLKRPIQRAVRLSEEENNLIKRKIEESFFPNFQNFALHLLIQGEIRHVDYSELNRLTTEIHKIGININQMARLANQFHEISSEDIKDLTDKVQSLNALVQSELNKLIKRKDQS
notes: as for B5
B16: the binding result in data set [6] is given as “binds”.

B17: PcfF R16L (natural protein)
chain: MENKQKLKRPIQRIVLLSEEENNLIKRKIEESFFPNFQNFALHLLIQGEIRHVDYSELNRLTTEIHKIGININQMARLANQFHEISSEDIKDLTDKVQSLNALVQSELNKLIKRKDQS
notes: as for B5
As for B17, in [6], the binding result was “binds”.

B18: random 44 bp DNA (dsDNA)
DNA 1: AGTGAACTGAAAGAAGAAACACACGTTGCATGAAGAGCTATATA
DNA 2: TATATAGCTCTTCATGCAACGTGTGTTTCTTCTTTCAGTTCACT
In the case of B18, in the data set with PcfF [2], the binding result is on record as “no binding”.
